For experiment [1], the target named is frog NASP.Sc dimer (X. laevis NASP.S a.a. 23–495, Δ97–314; 'NASP.S core') (Xenopus laevis) (UniProt P06180). Briefly: SEC-MALS; single purified protein on Superdex 200 Increase 10/300 GL; 20 mM Tris pH 7.5, 0.5 M NaCl; room temperature. On the technique in general: SEC sorts molecules by how far they enter the pores of the column.
In experiment [2] the target is Histone H3 (MBP fusion) 116-135 (Homo sapiens) (UniProt P68431). Conditions: cited from earlier work.
For experiment [3], the target named is sNASPc dimer (human sNASP a.a. 30–340, Δ101–159; 'sNASP core') (human) (UniProt P49321). Nature of the experiment: SEC-MALS; single purified protein on Superdex 200 Increase 10/300 GL; 20 mM Tris pH 7.5, 0.5 M NaCl; room temperature.

Broadly, the stoichiometry N is a count of units in the complex or per binding partner. As a reminder, the Kd is the constant that tells how readily two partners part at equilibrium.

Sequence of sNASP (P49321 2-788): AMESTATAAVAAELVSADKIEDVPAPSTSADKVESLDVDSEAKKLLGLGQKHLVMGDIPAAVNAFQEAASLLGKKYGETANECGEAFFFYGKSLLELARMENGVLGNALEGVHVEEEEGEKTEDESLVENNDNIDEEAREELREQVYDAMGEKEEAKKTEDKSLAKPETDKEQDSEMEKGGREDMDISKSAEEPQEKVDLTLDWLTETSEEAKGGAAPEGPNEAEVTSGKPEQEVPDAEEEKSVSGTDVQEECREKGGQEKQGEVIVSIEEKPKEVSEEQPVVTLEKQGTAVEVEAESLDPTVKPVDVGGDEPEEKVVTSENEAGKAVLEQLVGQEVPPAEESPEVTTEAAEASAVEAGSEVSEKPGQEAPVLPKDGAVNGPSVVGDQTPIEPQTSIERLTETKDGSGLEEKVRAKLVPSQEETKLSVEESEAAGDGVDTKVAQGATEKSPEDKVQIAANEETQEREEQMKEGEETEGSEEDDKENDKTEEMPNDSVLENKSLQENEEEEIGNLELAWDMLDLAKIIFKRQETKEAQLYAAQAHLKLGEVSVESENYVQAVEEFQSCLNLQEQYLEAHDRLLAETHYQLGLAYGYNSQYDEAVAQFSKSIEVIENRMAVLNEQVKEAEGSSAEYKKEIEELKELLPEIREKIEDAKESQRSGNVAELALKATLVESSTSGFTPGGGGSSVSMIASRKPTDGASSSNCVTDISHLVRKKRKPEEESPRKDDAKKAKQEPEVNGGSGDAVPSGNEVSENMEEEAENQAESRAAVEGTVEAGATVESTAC

Substance “frog NASP.Sc dimer (X. laevis NASP.S a.a. 23–495, Δ97–314; 'NASP.S core') (from UniProt P06180 23-495) (domain or fragment)” yielded a stoichiometry N in experiment [1] of 2.

Consider sNASP (from UniProt P49321), for which, in experiment [2], the Kd was 61 nM.

“sNASPc dimer (human sNASP a.a. 30–340, Δ101–159; 'sNASP core') (from UniProt P49321-2 30-340) (domain or fragment)” showed a stoichiometry N in experiment [3] of 2.

Source of the values: article PMC9122598, “NASP maintains histone H3–H4 homeostasis through two distinct H3 binding modes” (Nucleic Acids Research, 2022).
